Substitutions are numbered along the chain they refer to. Where “and” joins values, the source holds several entries; their conditions need not be identical. Identical values can stand only once.
T1: mouse active NSP4 (mA) (mouse), Q14B24
T1 chain: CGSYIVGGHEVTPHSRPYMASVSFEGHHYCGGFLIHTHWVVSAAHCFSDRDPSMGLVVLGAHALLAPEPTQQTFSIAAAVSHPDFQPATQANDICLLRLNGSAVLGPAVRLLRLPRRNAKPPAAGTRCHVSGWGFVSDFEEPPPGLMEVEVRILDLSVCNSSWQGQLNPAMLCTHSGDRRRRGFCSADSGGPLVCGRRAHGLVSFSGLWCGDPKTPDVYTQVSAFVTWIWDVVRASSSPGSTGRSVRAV

T2: mouse zymogen NSP4 (mZ) (mouse), Q14B24
T2 chain: T1 chain

T3: recombinant mouse NSP4 (form not stated) (mouse, UniProt Q14B24 40-284, limits assumed)
T3 construct: also called mNSP4; soluble mNSP4
T3 sequence (looked up): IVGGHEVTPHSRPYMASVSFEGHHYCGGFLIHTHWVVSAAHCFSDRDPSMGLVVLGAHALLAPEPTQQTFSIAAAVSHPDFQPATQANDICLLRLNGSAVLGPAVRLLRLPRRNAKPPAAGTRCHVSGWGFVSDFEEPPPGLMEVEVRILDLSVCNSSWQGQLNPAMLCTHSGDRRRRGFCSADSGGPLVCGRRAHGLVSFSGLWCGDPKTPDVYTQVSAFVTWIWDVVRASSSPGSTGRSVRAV

B1: anti-NSP4 antibody 5-2 (antibody, V domains shown)
VH: EVQLVESGGGLVQPGGSLRLSCAASGFTFSNTYISWVRQAPGKGLEWVGFIYPANGATYYADSVKGRFTISADTSKNTAYLQMNSLRAEDTAVYYCARRYRLSFDYWGQGTLVTVSS
VL: DIQMTQSPSSLSASVGDRVTITCRASQDVSTAVAWYQQKPGKAPKLLIYSASFLYSGVPSRFSGSGSGTDFTLTISSLQPEDFATYYCQQSYTTPPTFGQGTKVEIKR
B2: affinity matured anti-NSP4 antibody clone 51.59 (Fab, V domains shown)
VH: EVQLVESGGGLVQPGGSLRLSCAASGFTFSGSGIHWVRQAPGKGLEWVAWISPTGGNTYYADSVKGRFTISADTSKNTAYLQMNSLRAEDTAVYYCARVFFHNVAFDYWGQGTLVTVSS
VL: B1 VL with S91N, Y92F, T93S, T94S

Legend:
[1] = target: T1, mouse active NSP4 (mA) (mouse), Q14B24; assay: BLI affinity class in summary table; conditions: remark: other sources report otherwise
[2] = target: T2, mouse zymogen NSP4 (mZ) (mouse), Q14B24; assay: BLI affinity class in summary table; conditions: remark: other sources report otherwise
[3] = target: T1, mouse active NSP4 (mA) (mouse), Q14B24; assay: competition phage ELISA (phage IC50); soluble mA-NSP4 against plate-coated NSP4; conditions: remark: other sources report otherwise
[4] = target: T3, recombinant mouse NSP4 (form not stated); assay: ratio of phage IC50 values against the parental clone 51.WT
[5] = target: T3, recombinant mouse NSP4 (form not stated); assay: phage competition binding assay (phage IC50); soluble mNSP4 competitor

Binder | Kd [1] | Kd [2] | IC50 [3] | Affinity improvement to mNSP4 [4] | IC50 [5]
B1 | < 50 nM | > 50 nM and < 1000 nM | 25 nM | – | –
B2 | – | – | – | 196 fold | 0.095 nM
